Key:
[1] = target: T1, ScMre11p (Saccharomyces cerevisiae, UniProt P32829 1-692); test: EMSA
T1 sequence: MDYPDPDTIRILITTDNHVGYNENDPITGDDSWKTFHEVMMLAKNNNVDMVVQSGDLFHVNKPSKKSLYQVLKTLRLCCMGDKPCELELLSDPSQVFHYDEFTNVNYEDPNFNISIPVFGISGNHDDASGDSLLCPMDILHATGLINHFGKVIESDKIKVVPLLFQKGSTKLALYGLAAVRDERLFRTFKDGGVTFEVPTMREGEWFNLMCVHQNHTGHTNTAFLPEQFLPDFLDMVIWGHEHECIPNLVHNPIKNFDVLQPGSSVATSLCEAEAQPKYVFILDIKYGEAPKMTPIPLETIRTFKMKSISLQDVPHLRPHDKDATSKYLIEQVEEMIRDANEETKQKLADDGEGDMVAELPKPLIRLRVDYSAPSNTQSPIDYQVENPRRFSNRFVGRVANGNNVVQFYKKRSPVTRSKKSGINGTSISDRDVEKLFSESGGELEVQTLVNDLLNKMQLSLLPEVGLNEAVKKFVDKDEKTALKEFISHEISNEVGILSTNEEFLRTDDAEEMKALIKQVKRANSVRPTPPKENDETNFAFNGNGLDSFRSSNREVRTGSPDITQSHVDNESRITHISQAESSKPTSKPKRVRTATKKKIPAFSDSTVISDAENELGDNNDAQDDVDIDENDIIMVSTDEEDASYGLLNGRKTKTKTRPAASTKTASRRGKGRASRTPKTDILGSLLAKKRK

[2] = target: T1, ScMre11p; test: EMSA; remark: listed apart in the source

| Binder | binding result [1] | Kd [2] |
| --- | --- | --- |
| 6G3 G4 DNA (structured_DNA) DNA: AATTCTGGGTGTGTGGGTGTGTGGGTGTGTGGGTGTGTGGGTGTGTGGGTGTGG | binds | – |
| AATTCTGGGTGTGTGGGTGTGTGGGTGTGTGGGTGTGG (structured_DNA) [4G3 G4 DNA] | – | 70 nM |

— article PMC1188515
